Target: Lucilia sericata larval excretions/secretions (ES), Batch B: proteinase activities within ES
Assay: cell-based or functional assay

residual activity of STI-treated ES against H-Leu-AMC without further inhibitor (FIG. 10A), compared with untreated ES (percent of untreated ES): 25.7 | residual activity of STI-treated ES against H-Leu-AMC, percentage of untreated ES (percent of untreated ES): 28.4 | residual activity of STI-treated ES against Tosyl-Gly-Pro-Arg-AMC-HCl, percentage of untreated ES (percent of untreated ES): 0.5 | residual activity of STI-treated ES against Z-Phe-Arg-AMC-HCl, percentage of untreated ES (percent of untreated ES): 1.8
Substance: soybean trypsin inhibitor (STI) immobilized on cross-linked 4% beaded agarose (from UniProt P01070 25-205)

From patent US20110280858A1
